Assay results: US20220402995A1 (TOSOH, published 2022)
Residue numbers refer to the chain shown, from its start.

What was measured:
[1] = molecular target: T1, VLP2 (virus-like particles of AAV2) (AAV2, UniProt P03135 1-735; P03135 1-598; P03135 1-533); assay: ELISA on VLP2; binding after pH 3.0 51.1°C 15 min / untreated;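 further: binding of the heat-treated AAV-binding protein to VLP2, expressed as a percentage of the binding of the same protein without heating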
T1 construct: Empty AAV2 capsid; background says about 60 protein molecules, VP1:VP2:VP3 = 1:1:10; Immobilised on the ELISA plate
Protocol: The residual activity was calculated by dividing the binding activity of AAV-binding protein to VLP2 when the heat treatment was performed by the binding activity of AAV-binding protein to VLP2 when the heat treatment was not performed.

[2] = molecular target: T1, VLP2 (virus-like particles of AAV2); assay: ELISA on VLP2; binding after pH 10.0 41.2°C 15 min / untreated

T1 sequence (P03135 whole entry, chain 1 of 3): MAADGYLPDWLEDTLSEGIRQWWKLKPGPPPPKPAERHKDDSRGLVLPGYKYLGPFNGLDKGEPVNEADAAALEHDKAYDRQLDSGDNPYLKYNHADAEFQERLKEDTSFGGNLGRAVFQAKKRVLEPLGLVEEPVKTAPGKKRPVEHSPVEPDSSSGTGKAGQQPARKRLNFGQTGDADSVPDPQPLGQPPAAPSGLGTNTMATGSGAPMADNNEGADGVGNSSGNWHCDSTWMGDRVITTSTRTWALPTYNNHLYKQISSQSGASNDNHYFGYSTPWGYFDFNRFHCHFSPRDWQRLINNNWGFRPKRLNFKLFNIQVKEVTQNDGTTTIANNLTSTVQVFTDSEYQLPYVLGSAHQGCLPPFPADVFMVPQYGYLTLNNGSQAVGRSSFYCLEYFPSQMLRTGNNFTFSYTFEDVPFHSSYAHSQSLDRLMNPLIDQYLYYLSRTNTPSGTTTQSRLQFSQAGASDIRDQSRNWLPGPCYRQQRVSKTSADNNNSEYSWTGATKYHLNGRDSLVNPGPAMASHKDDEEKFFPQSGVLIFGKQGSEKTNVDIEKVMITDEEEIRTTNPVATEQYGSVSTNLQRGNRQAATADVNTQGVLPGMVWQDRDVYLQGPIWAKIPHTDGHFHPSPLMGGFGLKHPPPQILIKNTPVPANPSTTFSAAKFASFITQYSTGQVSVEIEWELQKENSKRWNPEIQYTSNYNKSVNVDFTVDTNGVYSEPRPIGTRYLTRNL
T1 sequence (P03135 139-735, tags left off, chain 2 of 3): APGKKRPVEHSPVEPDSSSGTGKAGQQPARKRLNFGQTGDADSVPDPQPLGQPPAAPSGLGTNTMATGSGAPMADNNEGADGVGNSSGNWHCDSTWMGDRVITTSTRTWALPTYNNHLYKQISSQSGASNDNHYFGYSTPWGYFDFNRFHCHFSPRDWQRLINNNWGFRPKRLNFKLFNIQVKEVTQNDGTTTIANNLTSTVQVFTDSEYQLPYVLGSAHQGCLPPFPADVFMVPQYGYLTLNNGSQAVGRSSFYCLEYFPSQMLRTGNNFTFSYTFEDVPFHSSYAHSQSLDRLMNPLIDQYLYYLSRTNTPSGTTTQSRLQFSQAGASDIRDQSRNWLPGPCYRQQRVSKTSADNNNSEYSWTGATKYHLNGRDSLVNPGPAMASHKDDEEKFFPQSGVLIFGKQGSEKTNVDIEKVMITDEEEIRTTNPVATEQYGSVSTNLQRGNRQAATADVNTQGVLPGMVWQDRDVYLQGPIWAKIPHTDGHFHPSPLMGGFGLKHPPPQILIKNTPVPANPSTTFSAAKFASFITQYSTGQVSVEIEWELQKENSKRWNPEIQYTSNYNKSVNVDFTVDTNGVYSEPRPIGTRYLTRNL
T1 sequence (P03135 203-735, chain 3 of 3): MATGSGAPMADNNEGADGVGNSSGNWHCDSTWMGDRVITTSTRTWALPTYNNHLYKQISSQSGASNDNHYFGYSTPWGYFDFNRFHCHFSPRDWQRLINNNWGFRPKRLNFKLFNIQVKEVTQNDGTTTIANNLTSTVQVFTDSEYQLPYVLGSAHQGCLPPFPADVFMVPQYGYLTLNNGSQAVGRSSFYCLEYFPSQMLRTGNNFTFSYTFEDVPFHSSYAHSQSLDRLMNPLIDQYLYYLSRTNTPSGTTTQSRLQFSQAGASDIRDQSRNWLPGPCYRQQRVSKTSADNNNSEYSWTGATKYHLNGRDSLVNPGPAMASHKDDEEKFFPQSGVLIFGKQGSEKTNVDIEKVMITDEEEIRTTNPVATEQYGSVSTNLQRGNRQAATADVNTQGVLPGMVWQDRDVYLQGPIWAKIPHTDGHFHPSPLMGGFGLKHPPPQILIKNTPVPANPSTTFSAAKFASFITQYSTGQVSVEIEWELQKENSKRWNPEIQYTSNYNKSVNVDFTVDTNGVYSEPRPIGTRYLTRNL

B1: AAV-binding protein No. 58 (AVR2 + Ile319Phe) (receptor)
chain: MGSAGESVQFTLPKNEVQLNAYVLQEPPKGETCTYDWQLITHPRDYSGEMEGKHSQILKLSKLTPGLYEFKVIVEGQNAHSEGYVNVTVKPEPRKNRPPIAIVSPQFQEISLPTTSTVIDGSQSTDDDKIVQYHWEELKGPLREEKISEDTAILKLSKLVPGNYTFSLTVVDSDGATNSTTANLTVNKAVDHHHHHH
- Residual activity [%] [1]: 73.9%

B2: AAV-binding protein No. 136 (AVR8g + Glu335Val, Thr343Ser) (receptor)
chain: B1 chain with V8D, F10I, E26V, T34S, K53E, K62N, K90E, S167R, N178D
- Residual activity [%] [2]: 38.8%

B3: AAV-binding protein No. 124 (AVR8g + Gln441Arg) (receptor)
chain: B1 chain with V8D, F10I, K53E, K62N, K90E, Q132R, S167R, N178D
- Residual activity [%] [2]: 25.2%

B4: AAV-binding protein No. 145 (AVR8g + Trp346Cys, Arg353Cys, His389Arg) (receptor)
chain: B1 chain with V8D, F10I, W37C, R44C, K53E, K62N, H80R, K90E, S167R, N178D
- Residual activity [%] [2]: 63.5%

B5: AAV-binding protein No. 127 (AVR8g + Asp483Asn) (receptor)
chain: B1 chain with V8D, F10I, K53E, K62N, K90E, S167R, D174N, N178D
- Residual activity [%] [2]: 23.3%

B6: AAV-binding protein No. 115 (AVR8g + Leu372Gln) (receptor)
chain: B1 chain with V8D, F10I, K53E, K62N, L63Q, K90E, S167R, N178D
- Residual activity [%] [2]: 72.8%

B7: AAV-binding protein No. 64 (AVR2 + Val332Ala) (receptor)
chain: B1 chain with F10I, V23A
- Residual activity [%] [1]: 41.4%

B8: AAV-binding protein No. 67 (AVR2 + Pro337Gln) (receptor)
chain: B1 chain with F10I, P28Q
- Residual activity [%] [1]: 45.6%

B9: AAV-binding protein No. 63 (AVR2 + Tyr331His) (receptor)
chain: B1 chain with F10I, Y22H
- Residual activity [%] [1]: 43.1%

B10: AAV-binding protein No. 144 (AVR8g + Val383Ala, Gln415Arg) (receptor)
chain: B1 chain with V8D, F10I, K53E, K62N, V74A, K90E, Q106R, S167R, N178D
- Residual activity [%] [2]: 65.7%

B11: AAV-binding protein No. 120 (AVR8g + Lys380Glu) (receptor)
chain: B1 chain with V8D, F10I, K53E, K62N, K71E, K90E, S167R, N178D
- Residual activity [%] [2]: 59.5%

B12: AVR10 (AAV-binding protein No. 143; AVR8g + Val381Ala, Ile382Val) (receptor)
chain: B1 chain with V8D, F10I, K53E, K62N, V72A, I73V, K90E, S167R, N178D
- Residual activity [%] [2]: 90.3%

B13: AAV-binding protein No. 139 (AVR8g + Leu369Gln, Pro374Leu) (receptor)
chain: B1 chain with V8D, F10I, K53E, L60Q, K62N, P65L, K90E, S167R, N178D
- Residual activity [%] [2]: 85.2%

B14: AAV-binding protein No. 61 (AVR2 + Leu328Gln) (receptor)
chain: B1 chain with F10I, L19Q
- Residual activity [%] [1]: 43.5%

B15: AAV-binding protein No. 62 (AVR2 + Leu328Pro) (receptor)
chain: B1 chain with F10I, L19P
- Residual activity [%] [1]: 38.8%

B16: AAV-binding protein No. 121 (AVR8g + Val381Ala) (receptor)
chain: B1 chain with V8D, F10I, K53E, K62N, V72A, K90E, S167R, N178D
- Residual activity [%] [2]: 89.9%

B17: AAV-binding protein No. 141 (AVR8g + Leu376Pro, Gly(Ser)390Gly) (receptor)
chain: B1 chain with V8D, F10I, K53E, K62N, L67P, S81G, K90E, S167R, N178D
notes: Gly(Ser)390Gly read as Ser390 of AVR8g back to the wild-type Gly, so Gly390Ser is not applied
- Residual activity [%] [2]: 85%

B18: AAV-binding protein No. 109 (AVR8g + Glu360Lys) (receptor)
chain: B1 chain with V8D, F10I, E51K, K53E, K62N, K90E, S167R, N178D
- Residual activity [%] [2]: 40.2%

B19: AAV-binding protein No. 133 (AVR8g + Gln327Leu, Lys(Asn)371Asp) (receptor)
chain: B1 chain with V8D, F10I, Q18L, K53E, K62D, K90E, S167R, N178D
notes: Asn371 of AVR8g replaced by Asp
- Residual activity [%] [2]: 62.1%

B20: AAV-binding protein No. 131 (AVR8g + Asn324Ser, Gly357Cys) (receptor)
chain: B1 chain with V8D, F10I, N15S, G48C, K53E, K62N, K90E, S167R, N178D
- Residual activity [%] [2]: 70.3%

B21: AAV-binding protein No. 142 (AVR8g + Glu378Gly, Arg403His) (receptor)
chain: B1 chain with V8D, F10I, K53E, K62N, E69G, K90E, R94H, S167R, N178D
- Residual activity [%] [2]: 76.6%

B22: AAV-binding protein No. 119 (AVR8g + Phe379Ser) (receptor)
chain: B1 chain with V8D, F10I, K53E, K62N, F70S, K90E, S167R, N178D
- Residual activity [%] [2]: 24.3%

B23: AAV-binding protein No. 116 (AVR8g + Thr373Ala) (receptor)
chain: B1 chain with V8D, F10I, K53E, K62N, T64A, K90E, S167R, N178D
- Residual activity [%] [2]: 57.8%

B24: AAV-binding protein No. 138 (AVR8g + Gly361Cys, Gly(Ser)390Gly) (receptor)
chain: B1 chain with V8D, F10I, G52C, K53E, K62N, S81G, K90E, S167R, N178D
notes: as for B17
- Residual activity [%] [2]: 51.5%

B25: AAV-binding protein No. 125 (AVR8g + His443Leu) (receptor)
chain: B1 chain with V8D, F10I, K53E, K62N, K90E, H134L, S167R, N178D
- Residual activity [%] [2]: 36.5%

B26: AAV-binding protein No. 111 (AVR8g + Lys(Glu)362Gly) (receptor)
chain: B1 chain with V8D, F10I, K53G, K62N, K90E, S167R, N178D
notes: Glu362 of AVR8g replaced by Gly
- Residual activity [%] [2]: 41.1%

B27: AAV-binding protein No. 113 (AVR8g + Ile366Thr) (receptor)
chain: B1 chain with V8D, F10I, K53E, I57T, K62N, K90E, S167R, N178D
- Residual activity [%] [2]: 41.4%

B28: AAV-binding protein No. 65 (AVR2 + Val332Glu) (receptor)
chain: B1 chain with F10I, V23E
- Residual activity [%] [1]: 29.4%

B29: AAV-binding protein No. 150 (AVR8g + Val396Ala, Gln441Arg, Lys448Glu) (receptor)
chain: B1 chain with V8D, F10I, K53E, K62N, V87A, K90E, Q132R, K139E, S167R, N178D
- Residual activity [%] [2]: 49.7%

B30: AAV-binding protein No. 137 (AVR8g + Thr341Pro, Phe379Ser) (receptor)
chain: B1 chain with V8D, F10I, T32P, K53E, K62N, F70S, K90E, S167R, N178D
- Residual activity [%] [2]: 86.3%

B31: AAV-binding protein No. 140 (AVR8g + Leu372Pro, Val396Ala) (receptor)
chain: B1 chain with V8D, F10I, K53E, K62N, L63P, V87A, K90E, S167R, N178D
- Residual activity [%] [2]: 92.8%

B32: AAV-binding protein No. 118 (AVR8g + Glu378Gly) (receptor)
chain: B1 chain with V8D, F10I, K53E, K62N, E69G, K90E, S167R, N178D
- Residual activity [%] [2]: 66.7%

B33: AAV-binding protein No. 59 (AVR2 + Ile319Asn) (receptor)
chain: B1 chain with F10N
- Residual activity [%] [1]: 26.1%

B34: AAV-binding protein No. 149 (AVR8g + Val394Ile, Asn395Ser, Thr426Ala) (receptor)
chain: B1 chain with V8D, F10I, K53E, K62N, V85I, N86S, K90E, T117A, S167R, N178D
- Residual activity [%] [2]: 70.5%

B35: AAV-binding protein No. 134 (AVR8g + Asn329Ile, Val499Ile) (receptor)
chain: B1 chain with V8D, F10I, N20I, K53E, K62N, K90E, S167R, N178D, V190I
- Residual activity [%] [2]: 63.9%

B36: AAV-binding protein No. 122 (AVR8g + Gln386Arg) (receptor)
chain: B1 chain with V8D, F10I, K53E, K62N, Q77R, K90E, S167R, N178D
- Residual activity [%] [2]: 34.9%

B37: AAV-binding protein No. 66 (AVR2 + Leu333Pro) (receptor)
chain: B1 chain with F10I, L24P
- Residual activity [%] [1]: 31.8%

B38: AAV-binding protein No. 114 (AVR8g + Leu372Pro) (receptor)
chain: B1 chain with V8D, F10I, K53E, K62N, L63P, K90E, S167R, N178D
- Residual activity [%] [2]: 91.6%

B39: AAV-binding protein No. 128 (AVR8g + Ser312Pro, Pro374Leu) (receptor)
chain: B1 chain with S3P, V8D, F10I, K53E, K62N, P65L, K90E, S167R, N178D
- Residual activity [%] [2]: 74.9%

B40: AAV-binding protein No. 147 (AVR8g + Phe379Cys, Gln432Leu, Ser488Leu) (receptor)
chain: B1 chain with V8D, F10I, K53E, K62N, F70C, K90E, Q123L, S167R, N178D, S179L
- Residual activity [%] [2]: 79.7%

B41: AAV-binding protein No. 148 (AVR8g + Glu384Val, Gln432Arg, Ile456Val) (receptor)
chain: B1 chain with V8D, F10I, K53E, K62N, E75V, K90E, Q123R, I147V, S167R, N178D
- Residual activity [%] [2]: 37.4%

B42: AAV-binding protein No. 132 (AVR8g + Gln327His, Glu378Val) (receptor)
chain: B1 chain with V8D, F10I, Q18H, K53E, K62N, E69V, K90E, S167R, N178D
- Residual activity [%] [2]: 56.5%

B43: AAV-binding protein No. 112 (AVR8g + Ser364Leu) (receptor)
chain: B1 chain with V8D, F10I, K53E, S55L, K62N, K90E, S167R, N178D
- Residual activity [%] [2]: 45.3%

B44: AAV-binding protein No. 135 (AVR8g + Glu335Gly, Gln386Arg) (receptor)
chain: B1 chain with V8D, F10I, E26G, K53E, K62N, Q77R, K90E, S167R, N178D
- Residual activity [%] [2]: 36.3%

B45: AAV-binding protein No. 60 (AVR2 + Lys323Glu) (receptor)
chain: B1 chain with F10I, K14E
- Residual activity [%] [1]: 80.2%

B46: AAV-binding protein No. 129 (AVR8g + Ala313Ser, Glu378Gly) (receptor)
chain: B1 chain with A4S, V8D, F10I, K53E, K62N, E69G, K90E, S167R, N178D
- Residual activity [%] [2]: 67.5%

B47: AAV-binding protein No. 68 (AVR2 + Tyr(Cys)342Arg) (receptor)
chain: B1 chain with F10I, C33R
notes: Cys342 of AVR2 replaced by Arg
- Residual activity [%] [1]: 70.4%

B48: AAV-binding protein No. 110 (AVR8g + Glu360Val) (receptor)
chain: B1 chain with V8D, F10I, E51V, K53E, K62N, K90E, S167R, N178D
- Residual activity [%] [2]: 33.3%

B49: AAV-binding protein No. 126 (AVR8g + Lys448Glu) (receptor)
chain: B1 chain with V8D, F10I, K53E, K62N, K90E, K139E, S167R, N178D
- Residual activity [%] [2]: 34.5%

B50: AAV-binding protein No. 130 (AVR8g + Lys323Arg, Glu384Val) (receptor)
chain: B1 chain with V8D, F10I, K14R, K53E, K62N, E75V, K90E, S167R, N178D
- Residual activity [%] [2]: 63.1%

B51: AAV-binding protein No. 146 (AVR8g + Leu372Gln, Leu376Pro, Val394Asp) (receptor)
chain: B1 chain with V8D, F10I, K53E, K62N, L63Q, L67P, V85D, K90E, S167R, N178D
- Residual activity [%] [2]: 81.4%

B52: AAV-binding protein No. 117 (AVR8g + Leu376Pro) (receptor)
chain: B1 chain with V8D, F10I, K53E, K62N, L67P, K90E, S167R, N178D
- Residual activity [%] [2]: 76.7%

B53: AAV-binding protein No. 123 (AVR8g + Tyr393Cys) (receptor)
chain: B1 chain with V8D, F10I, K53E, K62N, Y84C, K90E, S167R, N178D
- Residual activity [%] [2]: 60.5%
